# Data published in patent US20240287172A1 (SCIRHOM, published 2024).
# B1: antibody 3 (antibody, V domains shown)
# VH: QVTLKESGPGILQPSQTLSLTCSFSGFSLTTFAMGIGWVRQPSGKGLEWLAHIWWDGEKYNNPVLKSRLTISKDTSKNQVFLRIANVDTPDTATYYCARISSIYYIIDNWGQGTSVTVSS
# VL: DIVLTQSPATLSVTPGHSVSLSCRASQSISNNLHWYQKKSHESPRLLIKYVSQSISGIPSRFSGSGSGTDFTLSINSVETEDFGMYFCQQSYNWPLTFGAGTKLELK
# notes: mouse IgG, kappa light chain; also called clone #3; purified antibody 3
# Target: T1, miR2-FL-WT-FLAG (mouse, UniProt Q80WQ6 1-827)
# T1 construct: on MEF-DKO cells
# T1 sequence: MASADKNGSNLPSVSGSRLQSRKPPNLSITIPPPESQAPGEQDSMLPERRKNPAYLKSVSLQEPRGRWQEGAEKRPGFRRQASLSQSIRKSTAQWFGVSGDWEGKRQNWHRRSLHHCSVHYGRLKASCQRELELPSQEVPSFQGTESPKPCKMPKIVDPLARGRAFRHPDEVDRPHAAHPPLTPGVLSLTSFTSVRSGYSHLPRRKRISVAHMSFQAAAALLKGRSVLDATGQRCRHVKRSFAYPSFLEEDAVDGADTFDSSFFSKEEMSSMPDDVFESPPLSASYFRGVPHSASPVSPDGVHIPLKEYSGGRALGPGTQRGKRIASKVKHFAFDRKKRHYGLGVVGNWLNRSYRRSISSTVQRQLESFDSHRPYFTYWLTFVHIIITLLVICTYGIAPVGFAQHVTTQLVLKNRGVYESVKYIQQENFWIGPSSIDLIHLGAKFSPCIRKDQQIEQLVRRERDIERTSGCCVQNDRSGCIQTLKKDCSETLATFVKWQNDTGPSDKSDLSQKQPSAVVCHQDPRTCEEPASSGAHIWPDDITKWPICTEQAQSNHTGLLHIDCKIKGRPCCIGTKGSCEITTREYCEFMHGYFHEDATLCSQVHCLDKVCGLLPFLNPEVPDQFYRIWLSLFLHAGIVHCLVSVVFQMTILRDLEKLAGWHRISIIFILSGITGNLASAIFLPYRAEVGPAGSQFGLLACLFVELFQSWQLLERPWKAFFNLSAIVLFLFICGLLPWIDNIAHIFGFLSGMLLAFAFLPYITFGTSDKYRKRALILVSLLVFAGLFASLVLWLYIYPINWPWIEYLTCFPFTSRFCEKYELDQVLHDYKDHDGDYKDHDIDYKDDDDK
# Assay: FACS on MEF-DKO-miR2-FL-WT-FLAG cells
binder,measurement,value
B1,binding result,no binding (tested: 3 µg/ml)
